According to patent US20170022281A1 (AbbVie / Abbott, published 2017):

T1: cyno PRLR ECD-his6 protein (cyno)
T1 chain: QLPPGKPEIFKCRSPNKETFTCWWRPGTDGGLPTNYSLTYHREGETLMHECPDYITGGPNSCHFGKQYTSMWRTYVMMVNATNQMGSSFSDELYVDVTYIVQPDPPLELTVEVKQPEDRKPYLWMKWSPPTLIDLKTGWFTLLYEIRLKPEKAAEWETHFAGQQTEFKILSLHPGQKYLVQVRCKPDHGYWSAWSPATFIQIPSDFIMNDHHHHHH

T2: human PRLR ECD-Fc fusion protein (human, UniProt P16471 25-233)
T2 construct: not shown: Fc region (captured by goat anti-human Fc)
T2 sequence: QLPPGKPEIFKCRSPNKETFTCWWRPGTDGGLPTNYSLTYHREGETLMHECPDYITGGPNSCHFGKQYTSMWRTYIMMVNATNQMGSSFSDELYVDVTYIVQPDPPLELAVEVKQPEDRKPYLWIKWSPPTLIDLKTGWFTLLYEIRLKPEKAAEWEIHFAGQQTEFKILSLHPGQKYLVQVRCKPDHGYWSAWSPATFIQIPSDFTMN

T3: human PRLR (Biacore antigen) (human, UniProt P16471 25-234, limits assumed)
T3 construct: The construct injected over captured antibody is not described (a soluble form is likely); also called huPRLR
T3 sequence: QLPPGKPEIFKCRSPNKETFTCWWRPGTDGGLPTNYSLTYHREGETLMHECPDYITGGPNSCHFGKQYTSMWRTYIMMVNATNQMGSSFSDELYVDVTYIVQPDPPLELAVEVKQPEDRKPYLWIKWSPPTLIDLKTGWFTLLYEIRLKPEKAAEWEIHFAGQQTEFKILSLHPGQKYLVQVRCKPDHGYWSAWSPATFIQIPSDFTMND

T4: mouse PRLR on Baf3-mPRLR cells (mouse, UniProt Q08501 20-608)
T4 sequence (looked up): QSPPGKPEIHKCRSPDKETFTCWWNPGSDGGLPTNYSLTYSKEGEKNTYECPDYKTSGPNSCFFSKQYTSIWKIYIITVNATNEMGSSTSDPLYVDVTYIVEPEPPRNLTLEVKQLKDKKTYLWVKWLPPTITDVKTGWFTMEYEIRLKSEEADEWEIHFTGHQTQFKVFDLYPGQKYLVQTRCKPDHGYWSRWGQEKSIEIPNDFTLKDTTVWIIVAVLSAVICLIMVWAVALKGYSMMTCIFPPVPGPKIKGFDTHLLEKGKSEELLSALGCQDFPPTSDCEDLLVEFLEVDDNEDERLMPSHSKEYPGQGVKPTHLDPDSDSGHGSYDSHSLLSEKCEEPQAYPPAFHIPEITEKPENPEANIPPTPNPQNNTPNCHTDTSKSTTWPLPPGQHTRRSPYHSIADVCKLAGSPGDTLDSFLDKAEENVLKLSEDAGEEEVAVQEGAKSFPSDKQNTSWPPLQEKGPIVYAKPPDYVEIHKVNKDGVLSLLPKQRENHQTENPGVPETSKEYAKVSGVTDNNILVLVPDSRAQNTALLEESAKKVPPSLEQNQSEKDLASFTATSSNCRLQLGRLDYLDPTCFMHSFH

T5: human PRLR on cells (human, UniProt P16471 25-622)
T5 sequence: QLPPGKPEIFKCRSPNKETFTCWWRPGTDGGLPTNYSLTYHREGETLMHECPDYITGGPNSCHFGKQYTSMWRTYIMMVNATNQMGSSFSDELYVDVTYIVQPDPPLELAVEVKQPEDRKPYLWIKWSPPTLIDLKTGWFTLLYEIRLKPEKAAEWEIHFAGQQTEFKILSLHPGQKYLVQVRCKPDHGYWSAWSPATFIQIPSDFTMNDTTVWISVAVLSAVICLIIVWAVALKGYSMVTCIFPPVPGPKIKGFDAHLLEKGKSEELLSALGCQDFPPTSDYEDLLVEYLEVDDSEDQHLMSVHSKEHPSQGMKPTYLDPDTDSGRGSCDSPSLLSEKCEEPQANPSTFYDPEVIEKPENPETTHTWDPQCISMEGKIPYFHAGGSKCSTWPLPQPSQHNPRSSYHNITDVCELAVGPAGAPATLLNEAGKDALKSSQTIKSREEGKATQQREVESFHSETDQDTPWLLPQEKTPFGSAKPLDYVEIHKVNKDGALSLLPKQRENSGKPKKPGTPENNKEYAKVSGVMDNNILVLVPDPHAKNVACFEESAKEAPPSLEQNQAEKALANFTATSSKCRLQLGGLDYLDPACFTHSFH


Experiments:
[1] = molecular target: T1, cyno PRLR ECD-his6 protein; assay: ELISA on ECD
How it was run: (§1)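 EC50 values derive from fitted binding curves of antibody serial dilutions (1 h) on captured PRLR. Detection used an HRP-conjugated secondary (1 h), TMB development for 3–5 min, an H₂SO₄ stop and a 450 nm read, with all steps in Tween/PBS pH 7.4 buffer.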

[2] = molecular target: T2, human PRLR ECD-Fc fusion protein; assay: ELISA on ECD
How it was run: as §1

[3] = molecular target: T3, human PRLR (Biacore antigen); assay: SPR simultaneous binding; PRLR held by surface mAb Ab39
Protocol: (§2) Running buffer was HBS-EP+ (10 mM Hepes, pH7.4, 150 mM NaCl, 3 mM EDTA, 0.05% surfactant). Assay was performed at 12° C. using Biacore T200 and CM5 sensor chips with anti-human IgG (Pierce) amine-coupled in all 4 flow cells to ˜2000 RU.
(§3) Separate test mAbs were captured in flowcells 2, 3 & 4 (flowcell 1 was reference, no test mAb). All 4 flowcells were then blocked by injection with isotype control mAb at 50 ug/ml. All 4 flowcells were then injected with antigen or buffer only (buffer only is for double referencing, done for each mAb pair individually). All 4 flowcells were then injected with 2nd test mAb at 10 ug/ml. All 4 flowcells were then regenerated with glycine, pH1.5.

[4] = molecular target: T3, human PRLR (Biacore antigen); assay: SPR simultaneous binding; PRLR held by surface mAb chAb8
Protocol: as §2, §3

[5] = molecular target: T3, human PRLR (Biacore antigen); assay: SPR simultaneous binding; PRLR held by surface mAb LFA102
Protocol: as §2, §3

[6] = molecular target: T4, mouse PRLR on Baf3-mPRLR cells; assay: cell-based or functional assay
[7] = molecular target: cyno PRLR on Baf3-cyPRLR cells (cyno); assay: cell-based or functional assay
human PRLR on cells = molecular target: T5, human PRLR on cells; assay: cell-based or functional assay

| Binder | EC50 [1] [nM] | EC50 [2] [nM] | solution mAb binding, % of PRLR binding [3] [%] | solution mAb binding, % of PRLR binding [4] [%] | solution mAb binding, % of PRLR binding [5] [%] | Baf3-mPRLR proliferation IC50 [6] [µg/mL] | Baf3-cyPRLR proliferation IC50 [7] [µg/mL] | Baf3-hPRLR proliferation IC50 (human PRLR on cells) [µg/mL] |
| --- | --- | --- | --- | --- | --- | --- | --- | --- |
| Ab19 (antibody, human IgG1, kappa, V domains shown, humanized from Ab6; G1; also called Ab1 HC.1a and Ab1 LC.1a) VH: EVQLVQSGAEVKKPGSSVKVSCKASGYTFTTYWMHWVRQAPGQGLEWIGEIDPSDSYSNYNQKFKDRATLTVDKSTSTAYMELSSLRSEDTAVYYCARNGGLGPAWFSYWGQGTLVTVSS VL: DIQMTQSPSSVSASVGDRVTITCKASQYVGTAVAWYQQKPGKSPKLLIYSASNRYTGVPSRFSDSGSGTDFTLTISSLQPEDFATYFCQQYSSYPWTFGGGTKVEIKR | 0.0575 | 0.0614 | -2 | 0 | 122 | > 30 | 0.13 | 0.12 |
| Ab21 (antibody, human IgG1, kappa, V domains shown, humanized from Ab6; G1; also called Ab1 HC.1a and Ab1 LC.2a) VH: EVQLVQSGAEVKKPGSSVKVSCKASGYTFTTYWMHWVRQAPGQGLEWIGEIDPSDSYSNYNQKFKDRATLTVDKSTSTAYMELSSLRSEDTAVYYCARNGGLGPAWFSYWGQGTLVTVSS VL: EIVMTQSPATLSVSPGERATLSCKASQYVGTAVAWYQQKPGQSPRLLIYSASNRYTGVPARFSDSGSGTEFTLTISSLQSEDFAVYFCQQYSSYPWTFGGGTKVEIKR | 0.0537 | 0.0728 | -2 | 0 | 104 | > 30 | 0.15 | 0.15 |
| chAb5 (antibody, human IgG1, kappa, V domains shown, chimeric, murine variable and human G1/kappa constant regions) VH: QVQLQQPGAELVRPGTSVKLSCKASGYTFTSFWMHWVKQRPGQGLEWIGVIDPSDTYTNYNQKFKGKATLTVDTSSSTAYMQLSSLTSEDSAVYYCARGDYSNWFTYWGQGTLVTVSA VL: DVVMTQTPLSLPVSLGDQASISCRSSQRLVHSNGNTYLHWYLQKPGQSPKLLIYKVSNRFSGVPDRFSGSGSGTDFTLKISRVEAEDLGVYFCSQSTHVPWTFGGGTKLEIKT | 0.103 | 0.098 | -2 | 7 | 102 | 2.51 | 0.42 | 0.15 |
| chAb7 (antibody, human IgG1, kappa, V domains shown, chimeric, murine variable and human G1/kappa constant regions) VH: QVQLQQPGAELVMPGTSVKLSCKASGYTFTSYWIHWVKQRPGQGLEWIGEIDPSDSYTNYNQKFKGKATLTVDRSSSTAYMQLSSLTSEDSAVYYCGRSFFTNWFAYWGQGTLVTVSA VL: DVVMTQTPLSLPVSLGDQASISCRSSQSLVHSNGNTYLHWYLQKPGQSPKLLIYKVSNRFSGVPDRFSGSGSGTDFTLKINRVEAEDLGVYFCSQSTHVPFTFGSGTKLEIKT | 0.118 | 0.151 | -2 | 2 | 48 | 3.6 | 1.9 | 1.2 |
